# Patent publication US20240360228A1 (BIOLEGEND, published 2024)
# B1: AB8 (antibody, V domains shown)
# VH: AVQLVESGGGLVQPKESLKISCAASGFIFSNAAMYWVRQAPGKGLQWVARIRTKPKNYATYYIDSVKGRFTISRDDSKSMVYLQMDNLKTEDTAMYYCNTMGLTRAYYFDYWGQGVMVTVSS
# VL: DIQMTQSPSFLSASVGDRVTINCKASQNINRYLNWYQQKLGEAPKLLIYNANSLQTGIPSRFSGSGSGTDFTLTIRSLQPEDVATYFCLQHNSWPWTFGGGTKLELK
# notes: Hybridoma monoclonal; also called antibody 8; clone 8
# B2: AB10 (antibody, V domains shown)
# VH: EVQLVETGGGLVQPKGSLKLSCAVSGFTFKTNAMNWVRQAPGKGLEWVARIRSKSNKYATYYADSVKDRFTISRDDSQSMLYLQMNNLKTEDTAMYYCVRGSEMGYYYAMDYWGQGTSVTVSS
# VL: DIVMTQAAPSVPVTPGESVSISCRSSKSLLHSNGNTYLYWFLQRPGQSPQLLIYRMSNLASGVPDRFSGSGSGTAFTLRISRVEAEDVGVYYCMQHLEYPFTFGGGTKLEIK
# notes: Hybridoma monoclonal; also called antibody 10; clone 10
# Key:
# human CCR8 [1] = biological target: T1, human CCR8 (human, UniProt P51685 1-355); test: flow blocking, PBMC CCR8+CD3+; competitor PE-AB15
# T1 construct: Native CCR8 on human PBMC (CCR8+ CD3+ or CCR8+ CD4+ lymphocytes); also called chemokine (C-C motif) receptor 8
# Description: (§1) For blocking studies, 100 μL of the cell suspension were incubated with 10 μg purified isotype control, AB1, AB2, AB3, AB4, AB5, AB8, AB9, AB10, AB11, AB12, AB13, AB14, AB15, and Commercial ABI antibodies, or isotype control, as blocking agents.
# (§2) After incubation with the blocking agent, the cells were incubated with 0.25 μg of the indicated PE-conjugated antibody plus anti-human CD4 APC or anti-human CD3 for another 15 minutes in the dark and then washed 2 times with Cell Staining Buffer, and acquired in a FACSCanto II flow cytometer (BD Biosciences); the data was analyzed using FCS Express (De Novo Software); MFI correspond to the CCR8+ CD4+ lymphocytes or CCR8+ CD3+ lymphocytes.
# (§3) Percentage original MFI was calculated by dividing the MFI of samples blocked with AB1, AB2, AB3, AB4, AB5, AB6, AB7, AB8, AB9, AB10, AB11, AB12, AB13, AB14, AB15, and Commercial ABI antibodies, by the MFI of samples blocked with the corresponding isotype control. This value was subtracted from 100 to get a blocking percentage. The formula is shown below: […]
# human CCR8 [2] = biological target: T1, human CCR8; test: flow blocking, PBMC CCR8+CD3+; competitor PE-AB12
# Description: as §1, §2, §3
# human CCR8 [3] = biological target: T1, human CCR8; test: flow blocking, PBMC CCR8+CD4+; competitor PE-AB6
# Description: as §1, §2
# human CCR8 [4] = biological target: T1, human CCR8; test: flow blocking, PBMC CCR8+CD4+; competitor PE-AB10
# Description: as §1, §2, §3
# human CCR8 [5] = biological target: T1, human CCR8; test: flow blocking, PBMC CCR8+CD3+; competitor PE-L263G8
# Description: as §1, §2, §3
# human CCR8 [6] = biological target: T1, human CCR8; test: flow blocking, PBMC CCR8+CD4+; competitor PE-AB4
# Description: as §1, §2, §3
# human CCR8 [7] = biological target: T1, human CCR8; test: flow blocking, PBMC CCR8+CD4+; competitor PE-AB15
# Description: as §1, §2, §3
# human CCR8 [8] = biological target: T1, human CCR8; test: flow blocking, PBMC CCR8+CD3+; competitor PE-AB13
# Description: as §1, §2, §3
# human CCR8 [9] = biological target: T1, human CCR8; test: flow blocking, PBMC CCR8+CD4+; competitor PE-AB13
# Description: as §1, §2
# human CCR8 [10] = biological target: T1, human CCR8; test: flow blocking, PBMC CCR8+CD3+; competitor PE-AB10
# Description: as §1, §2, §3
# human CCR8 [11] = biological target: T1, human CCR8; test: flow blocking, PBMC CCR8+CD3+; competitor PE-AB7
# Description: as §1, §2, §3
# human CCR8 [12] = biological target: T1, human CCR8; test: flow blocking, PBMC CCR8+CD4+; competitor PE-AB14
# Description: as §1, §2
# human CCR8 [13] = biological target: T1, human CCR8; test: flow blocking, PBMC CCR8+CD3+; competitor PE-AB14
# Description: as §1, §2, §3
# human CCR8 [14] = biological target: T1, human CCR8; test: flow blocking, PBMC CCR8+CD4+; competitor PE-AB5
# Description: as §1, §2, §3
# human CCR8 [15] = biological target: T1, human CCR8; test: flow blocking, PBMC CCR8+CD4+; competitor PE-AB1
# Description: as §1, §2, §3
# human CCR8 [16] = biological target: T1, human CCR8; test: flow blocking, PBMC CCR8+CD4+; competitor PE-AB3
# Description: as §1, §2, §3
# human CCR8 [17] = biological target: T1, human CCR8; test: flow blocking, PBMC CCR8+CD3+; competitor PE-AB5
# Description: as §1, §2, §3
# human CCR8 [18] = biological target: T1, human CCR8; test: flow blocking, PBMC CCR8+CD4+; competitor PE-AB2
# Description: as §1, §2, §3
# human CCR8 [19] = biological target: T1, human CCR8; test: flow blocking, PBMC CCR8+CD3+; competitor PE-433H
# Description: as §1, §2, §3
# human CCR8 [20] = biological target: T1, human CCR8; test: flow blocking, PBMC CCR8+CD3+; competitor PE-AB6
# Description: as §1, §2, §3
# human CCR8 [21] = biological target: T1, human CCR8; test: flow blocking, PBMC CCR8+CD3+; competitor PE-AB8
# Description: as §1, §2, §3
# human CCR8 [22] = biological target: T1, human CCR8; test: flow blocking, PBMC CCR8+CD3+; competitor PE-AB11
# Description: as §1, §2, §3
# human CCR8 [23] = biological target: T1, human CCR8; test: flow blocking, PBMC CCR8+CD4+; competitor PE-AB12
# Description: as §1, §2, §3
# human CCR8 [24] = biological target: T1, human CCR8; test: flow blocking, PBMC CCR8+CD4+; competitor PE-AB11
# Description: as §1, §2, §3
# human CCR8 [25] = biological target: T1, human CCR8; test: flow blocking, PBMC CCR8+CD4+; competitor PE-433H
# Description: as §1, §2
# T1 sequence (P51685 whole entry): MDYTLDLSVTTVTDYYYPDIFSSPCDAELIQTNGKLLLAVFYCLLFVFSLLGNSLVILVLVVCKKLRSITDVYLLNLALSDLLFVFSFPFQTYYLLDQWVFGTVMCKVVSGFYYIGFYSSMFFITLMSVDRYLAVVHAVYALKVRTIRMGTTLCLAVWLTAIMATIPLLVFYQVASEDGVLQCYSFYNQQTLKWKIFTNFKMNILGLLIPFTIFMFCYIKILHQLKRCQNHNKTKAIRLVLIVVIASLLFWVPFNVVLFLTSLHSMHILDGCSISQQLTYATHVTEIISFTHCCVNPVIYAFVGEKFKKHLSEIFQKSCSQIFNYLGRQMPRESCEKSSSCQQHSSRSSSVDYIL
binder,measurement,setting,value
B1,% Blocking,human CCR8 [1],45.2%
same,MFI,human CCR8 [1],471
same,% Blocking,human CCR8 [2],48.4%
same,MFI,human CCR8 [2],527
same,% Blocking,human CCR8 [3],-14.4%
same,% Positive cells,human CCR8 [3],2.31%
same,% Blocking,human CCR8 [4],91.2%
same,% Positive cells,human CCR8 [4],0.13%
same,% Blocking,human CCR8 [5],13.1%
same,MFI,human CCR8 [5],585
same,% Blocking,human CCR8 [6],-19.7%
same,% Positive cells,human CCR8 [6],2.13%
same,% Blocking,human CCR8 [7],98.5%
same,% Positive cells,human CCR8 [7],0.02%
same,% Blocking,human CCR8 [8],-50.2%
same,MFI,human CCR8 [8],1330
same,% Blocking,human CCR8 [9],93.4%
same,% Positive cells,human CCR8 [9],0.13%
same,% Blocking,human CCR8 [10],23.7%
same,MFI,human CCR8 [10],608
same,% Blocking,human CCR8 [11],26.1%
same,MFI,human CCR8 [11],863
same,% Blocking,human CCR8 [12],96.9%
same,% Positive cells,human CCR8 [12],0.04%
same,% Blocking,human CCR8 [13],46.4%
same,MFI,human CCR8 [13],463
same,% Blocking,human CCR8 [14],-8.42%
same,% Positive cells,human CCR8 [14],2.19%
same,% Blocking,human CCR8 [15],-41.9%
same,% Positive cells,human CCR8 [15],2.2%
same,% Blocking,human CCR8 [16],-27.5%
same,% Positive cells,human CCR8 [16],2.18%
same,% Blocking,human CCR8 [17],-11.8%
same,MFI,human CCR8 [17],1100
same,% Blocking,human CCR8 [18],-38.4%
same,% Positive cells,human CCR8 [18],2.27%
same,% Blocking,human CCR8 [19],53%
same,MFI,human CCR8 [19],417
same,% Blocking,human CCR8 [20],-17.3%
same,MFI,human CCR8 [20],1080
same,% Blocking,human CCR8 [21],26.9%
same,MFI,human CCR8 [21],870
same,% Blocking,human CCR8 [22],45.9%
same,MFI,human CCR8 [22],502
same,% Blocking,human CCR8 [23],98.9%
same,% Positive cells,human CCR8 [23],0.02%
same,% Blocking,human CCR8 [24],98.5%
same,% Positive cells,human CCR8 [24],0.03%
same,% Blocking,human CCR8 [25],92.6%
same,% Positive cells,human CCR8 [25],0.13%
B2,% Blocking,human CCR8 [1],43.3%
same,MFI,human CCR8 [1],487
same,% Blocking,human CCR8 [2],47.6%
same,MFI,human CCR8 [2],536
same,% Blocking,human CCR8 [3],-7.92%
same,% Positive cells,human CCR8 [3],2.18%
same,% Blocking,human CCR8 [4],93.2%
same,% Positive cells,human CCR8 [4],0.1%
same,% Blocking,human CCR8 [5],10.2%
same,MFI,human CCR8 [5],605
same,% Blocking,human CCR8 [6],-38.8%
same,% Positive cells,human CCR8 [6],2.47%
same,% Blocking,human CCR8 [7],88.4%
same,% Positive cells,human CCR8 [7],0.15%
same,% Blocking,human CCR8 [8],43.6%
same,MFI,human CCR8 [8],499
same,% Blocking,human CCR8 [9],97.5%
same,% Positive cells,human CCR8 [9],0.05%
same,% Blocking,human CCR8 [10],30.7%
same,MFI,human CCR8 [10],552
same,% Blocking,human CCR8 [11],52.1%
same,MFI,human CCR8 [11],559
same,% Blocking,human CCR8 [12],89.2%
same,% Positive cells,human CCR8 [12],0.14%
same,% Blocking,human CCR8 [13],38.9%
same,MFI,human CCR8 [13],528
same,% Blocking,human CCR8 [14],-17.8%
same,% Positive cells,human CCR8 [14],2.38%
same,% Blocking,human CCR8 [15],-47.1%
same,% Positive cells,human CCR8 [15],2.28%
same,% Blocking,human CCR8 [16],-50.9%
same,% Positive cells,human CCR8 [16],2.58%
same,% Blocking,human CCR8 [17],-8.37%
same,MFI,human CCR8 [17],1070
same,% Blocking,human CCR8 [18],-40.2%
same,% Positive cells,human CCR8 [18],2.3%
same,% Blocking,human CCR8 [19],32.1%
same,MFI,human CCR8 [19],602
same,% Blocking,human CCR8 [20],-27%
same,MFI,human CCR8 [20],1170
same,% Blocking,human CCR8 [21],51.6%
same,MFI,human CCR8 [21],575
same,% Blocking,human CCR8 [22],55.2%
same,MFI,human CCR8 [22],416
same,% Blocking,human CCR8 [23],98.9%
same,% Positive cells,human CCR8 [23],0.02%
same,% Blocking,human CCR8 [24],98.5%
same,% Positive cells,human CCR8 [24],0.03%
same,% Blocking,human CCR8 [25],28.4%
same,% Positive cells,human CCR8 [25],1.26%
